T1: human LAG3 expressed on cells (human, UniProt P18627 23-525)
T1 sequence (looked up): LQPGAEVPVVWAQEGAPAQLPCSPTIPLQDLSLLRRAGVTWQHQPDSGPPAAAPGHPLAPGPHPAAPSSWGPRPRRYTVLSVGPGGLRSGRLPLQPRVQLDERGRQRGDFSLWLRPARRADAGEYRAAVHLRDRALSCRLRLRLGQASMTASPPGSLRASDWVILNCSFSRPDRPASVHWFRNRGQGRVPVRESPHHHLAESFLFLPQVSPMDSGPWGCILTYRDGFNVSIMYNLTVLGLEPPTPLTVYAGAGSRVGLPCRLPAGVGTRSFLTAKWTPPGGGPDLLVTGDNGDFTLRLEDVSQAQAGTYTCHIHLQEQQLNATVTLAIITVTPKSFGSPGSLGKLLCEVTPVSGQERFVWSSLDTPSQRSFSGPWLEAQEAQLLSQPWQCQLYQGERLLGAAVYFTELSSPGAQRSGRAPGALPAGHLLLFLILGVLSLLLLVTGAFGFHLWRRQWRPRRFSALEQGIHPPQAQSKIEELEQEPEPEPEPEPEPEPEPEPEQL


Legend:
[1] = target: T1, human LAG3 expressed on cells; assay: cell-based or functional assay
[2] = target: T1, human LAG3 expressed on cells; assay: cell ELISA, 293T-hLAG3 cells
Protocol: Each well was treated with stimulants. The cells were then fixed and blocked with Blocking buffer. The Primary antibodies were added. The wells were washed and a HRP-conjugated secondary antibody was added. The wells were washed with 1x PBS and a solution containing TMB (Biopanda, TMB-S-004) was added. The TMB reacted with HRP to change the color thereof from colorless to blue. An acid stop solution (Solarbio, C1058) was then added to stop the reaction and change the blue color to yellow.
Materials are listed below: [0072] […] 2) Blocking buffer: 1×PBS+3% BSA (Sigma, B2064); [0074] […] [0075] 4) Secondary antibody: Goat anti-human IgG1 Fc antibody, HRP (1:2500, invitrogen, A18817). [0076]

Row | Binder | IL-2, % of BMS, at 0.005080526 ug/mL [1] | IL-2, % of BMS, at 0.015241579 ug/mL [1] | IL-2, % of BMS, at 0.045724737 ug/mL [1] | IL-2, % of BMS, at 0.137174211 ug/mL [1] | IL-2, % of BMS, at 0.411522634 ug/mL [1] | IL-2, % of BMS, at 1.234567901 ug/mL [1] | IL-2, % of BMS, at 3.703703704 ug/mL [1] | IL-2, % of BMS, at 11.11111111 ug/mL [1] | IL-2, % of BMS, at 33.33333333 ug/mL [1] | IL-2, % of BMS, at 100 ug/mL [1] | EC50 [2] | OD450 at 0.0045725 ug/ml [2] | OD450 at 0.0137174 ug/ml [2] | OD450 at 0.0411523 ug/ml [2] | OD450 at 0.1234568 ug/ml [2] | OD450 at 0.3703704 ug/ml [2] | OD450 at 1.111111 ug/ml [2] | OD450 at 3.333333 ug/ml [2] | OD450 at 10 ug/ml [2]
1 | combination of sdAbs 25 and 2015 (other) VHH 1: QLQLVESGGGLVQAGGSLRLSCAASGSIESFSFMGWYRQAPGKQRELVAGFTGAASLSFSTYTDAVKGRFTISRDNAKNTVYLQMNSLKPEDTAVYFCNVDPWSQSWPGRYWGQGTQVTVSS VHH 2: QLQLVESGGGLAQTGGSLRLSCAAAGFTFDDTATGWFRQAPGKNREGVACISSSDGRIHYIDSAKGRFTISKDNAKKTVYLQMDSLKPEDTAVYYCAAARKGSTDCQGAIWGSWGQGTQVIVSS | 0.0473% | 0.883% | -2.03% | 0.439% | 3.96% | 18.9% | 43.6% | 52.5% | 50.7% | 62.2% |  |  |  |  |  |  |  |  | 
2 | combination of sdAbs 25 and 18 (other) VHH 1: QLQLVESGGGLVQAGGSLRLSCAASGSIESFSFMGWYRQAPGKQRELVAGFTGAASLSFSTYTDAVKGRFTISRDNAKNTVYLQMNSLKPEDTAVYFCNVDPWSQSWPGRYWGQGTQVTVSS VHH 2: QVQLVESGGGLVQPGGSLRLSCAASGFTLNEHAIGWFRRAPGKEREGVSCISSSDGSTYYHDSVKGRFNMSRDDAKNSVYLQMSSLKPEDTAIYYCAAALGRDCQGGQWKTSSWGQGTQVTVSS | 0% | 1.97% | 13.2% | 14.6% | 32.6% | 45.4% | 52.9% | 52.5% | 65% | 66.5% |  |  |  |  |  |  |  |  | 
3 | sdAb No. 17-H1 (VHH, Modified sdAb No. 17 (CDR1 DG to DA); not shown: Fc part implied by anti-human IgG1 Fc detection) VHH: QLQLVESGGGLVQPGGSLRLSCAASGLTLDAYAIGWFRQAPGKEREGLACISGSDGSTHYLDSVKGRFTISRDNGKNTMALQMNSLQFGDTAIYYCAARRGSCSGSWTYWGQGTQVTVSS |  |  |  |  |  |  |  |  |  |  | 1.01 nM | 0.101 | 0.242 | 0.527 | 0.945 | 1.27 | 1.4 | 1.44 | 1.5

Other lines, results leading:

Row | IL-2, % of BMS, at 0.005080526 ug/mL [1] | IL-2, % of BMS, at 0.015241579 ug/mL [1] | IL-2, % of BMS, at 0.045724737 ug/mL [1] | IL-2, % of BMS, at 0.137174211 ug/mL [1] | IL-2, % of BMS, at 0.411522634 ug/mL [1] | IL-2, % of BMS, at 1.234567901 ug/mL [1] | IL-2, % of BMS, at 3.703703704 ug/mL [1] | IL-2, % of BMS, at 11.11111111 ug/mL [1] | IL-2, % of BMS, at 33.33333333 ug/mL [1] | IL-2, % of BMS, at 100 ug/mL [1] | EC50 [2] | OD450 at 0.0045725 ug/ml [2] | OD450 at 0.0137174 ug/ml [2] | OD450 at 0.0411523 ug/ml [2] | OD450 at 0.1234568 ug/ml [2] | OD450 at 0.3703704 ug/ml [2] | OD450 at 1.111111 ug/ml [2] | OD450 at 3.333333 ug/ml [2] | OD450 at 10 ug/ml [2] | Binder
4 |  |  |  |  |  |  |  |  |  |  | 1.07 nM | 0.105 | 0.238 | 0.458 | 0.9 | 1.25 | 1.35 | 1.28 | 1.4 | sdAb No. 17-H2 (VHH, Modified sdAb No. 17 (CDR1 DG to EG); not shown: Fc part implied by anti-human IgG1 Fc detection) VHH: QLQLVESGGGLVQPGGSLRLSCAASGLTLEGYAIGWFRQAPGKEREGLACISGSDGSTHYLDSVKGRFTISRDNGKNTMALQMNSLQFGDTAIYYCAARRGSCSGSWTYWGQGTQVTVSS
5 |  |  |  |  |  |  |  |  |  |  | 0.758 nM | 0.092 | 0.232 | 0.432 | 0.745 | 0.962 | 0.979 | 0.905 | 1.18 | sdAb No. 17-H4 (VHH, Modified sdAb No. 17 (CDR2 DG to EG); not shown: Fc part implied by anti-human IgG1 Fc detection) VHH: QLQLVESGGGLVQPGGSLRLSCAASGLTLDGYAIGWFRQAPGKEREGLACISGSEGSTHYLDSVKGRFTISRDNGKNTMALQMNSLQFGDTAIYYCAARRGSCSGSWTYWGQGTQVTVSS
6 |  |  |  |  |  |  |  |  |  |  | 1.01 nM | 0.096 | 0.208 | 0.43 | 0.818 | 1.11 | 1.21 | 1.13 | 1.28 | sdAb No. 17-H3 (VHH, Modified sdAb No. 17 (CDR2 DG to DA); not shown: Fc part implied by anti-human IgG1 Fc detection) VHH: QLQLVESGGGLVQPGGSLRLSCAASGLTLDGYAIGWFRQAPGKEREGLACISGSDASTHYLDSVKGRFTISRDNGKNTMALQMNSLQFGDTAIYYCAARRGSCSGSWTYWGQGTQVTVSS

Reference: patent US20230303690A1 (published 2023)
